In publication PMC4875570:
“And” between values parts separate entries of the source, which are not always exact repeats. Equal values may be shown once.

Experiments:
[1] = target: severe acute respiratory syndrome (SARS) coronavirus papain-like protease (PLpro), wild type (SARS coronavirus) (UniProt P0C6X7)
[2] = target: severe acute respiratory syndrome (SARS) coronavirus papain-like protease (PLpro), wild type (SARS coronavirus) (UniProt P0C6X7); test: inhibition of AMC substrate cleavage

Q: What does the source list for ISG15-AMC?
A: KM of ISG15-AMC cleavage [1]: 15.9 µM; apparent kcat/KM of ISG15-AMC cleavage (Michaelis-Menten kinetics) [1]: 598000 M⁻¹ s⁻¹

Q: For “Lys48-linked tri-ubiquitin (triUb^Lys48), free chain (from UniProt P0CG48 1-76) (complex)”, which Ki [2] is on record?
A: 10.6 µM and 10.1 µM and 4.08 µM

Q: With monoUb-AMC (from UniProt P0CG48 1-76) as the substance, how does the KM of monoUb-AMC cleavage [1] read?
A: 15.1 µM

Q: What about the apparent kcat/KM of monoUb-AMC cleavage (Michaelis-Menten kinetics) [1] of the same substance?
A: 33300 M⁻¹ s⁻¹

Q: “triazole-linked diUb^Lys48-AMC (from UniProt P0CG48) (complex)” was tested. Which KM of triazole-linked diUb^Lys48-AMC cleavage [1] did it give?
A: 33.4 µM
